A word on the EC50: it is the concentration at which the effect is half-maximal. High values mean a less potent agent, low ones a more potent agent. A word on the Kd: it is the constant that tells how readily two partners part at equilibrium. A high value points to weaker binding.

This is an account of results in US20200283523A1 (WUXI BIOLOGICS IRELAND, published 2020).

One assay deals with T1, human CD3 (human, UniProt P07766 23-207).
T1 construct: whole, on cells; On cells CD3 stands as the full CD3/TCR complex; also called CD3 on Jurkat cells
T1 sequence (P07766 23-207): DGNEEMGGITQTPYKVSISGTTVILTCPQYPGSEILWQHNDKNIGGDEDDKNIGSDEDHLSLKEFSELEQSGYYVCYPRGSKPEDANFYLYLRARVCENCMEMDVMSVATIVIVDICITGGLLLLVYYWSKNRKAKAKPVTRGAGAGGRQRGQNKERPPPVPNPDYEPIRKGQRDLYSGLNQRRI
Description: flow cytometry on Jurkat cells. For orientation: In flow cytometry, cells or beads pass a laser one at a time.

In a further assay the target is T2, cynomolgus CD19 (cynomolgus monkey, UniProt A0A2K5W8L9 20-557).
T2 construct: whole, on cells; also called monkey CD19; WBP701.CHO-K1.cpro1.FL.C9 cells
T2 sequence: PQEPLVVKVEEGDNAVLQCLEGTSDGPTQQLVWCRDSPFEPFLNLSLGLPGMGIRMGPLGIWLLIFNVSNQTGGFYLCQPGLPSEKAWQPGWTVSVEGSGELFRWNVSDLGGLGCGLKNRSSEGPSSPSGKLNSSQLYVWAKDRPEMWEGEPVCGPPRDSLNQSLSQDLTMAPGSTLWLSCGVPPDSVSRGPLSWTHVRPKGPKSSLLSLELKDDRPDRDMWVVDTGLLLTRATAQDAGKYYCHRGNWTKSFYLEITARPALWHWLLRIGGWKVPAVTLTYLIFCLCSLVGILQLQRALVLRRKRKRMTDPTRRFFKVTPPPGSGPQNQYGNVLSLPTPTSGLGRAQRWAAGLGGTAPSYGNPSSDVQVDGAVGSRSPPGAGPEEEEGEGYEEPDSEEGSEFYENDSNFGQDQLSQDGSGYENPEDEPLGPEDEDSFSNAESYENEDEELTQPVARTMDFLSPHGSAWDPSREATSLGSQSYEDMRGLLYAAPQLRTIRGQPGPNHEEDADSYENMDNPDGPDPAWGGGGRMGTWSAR
In words: flow cytometry on CHO-K1 cells expressing cynomolgus CD19 (WBP701.CHO-K1.cpro1.FL.C9). As to the method:
Binding of the CD3×CD19 bispecific antibody to cynomoglus CD19 target protein expressed on CHOK1 cells was determined by flow cytometry analysis. In brief, cynomoglus CD19 over-expressed stable cell line (WBP701.CHOK1.cPro1.C9, WuXi Biologics) were harvested with trypsin and diluted to 1×10⁶ cells/ml in 1% BSA/1×PBS. 1×10⁵ cells/well (100 ul) were added to each well of a 96-well U-plate (Corning, #3799) and centrifuged at 1500 rpm (Eppendorf, #5810R) for 5 minutes before removing the supernatant. Antibodies serially diluted in 1% BSA/1×PBS were added at 100 µl/well to the pelleted cells and incubated at 4° C. for 1 hour. A non-related hIgG4 antibody was used as an isotype control. […] Pelleted cells were resuspended in 100 ul/well Fluorescence-labeled anti-human IgG Fc antibody (Jackson, #109-115-098) 1:150 diluted in 1% BSA/1×PBS for 30 minutes at 4° C. in the dark. […] After the final wash, cells were resuspended in 80 ul 1% BSA/1×PBS and fluorescence values were measured with a FACS Canto II cytometer (BD Biosciences). The amount of cell surface bound anti-CD19&CD3 bispecific antibody was assessed by measuring the mean fluorescence (MFI). The FACS raw data were analyzed by FlowJo software, wells containing no antibody or secondary antibody only were used to establish background fluorescence. […]

The next assay deals with FcγRI (UniProt P12314 16-288, limits assumed). In words: SPR (Biacore), receptor captured on anti-his chip, antibody injected, 1:1 Langmuir fit. As to the method:
(§1) Antibody binding affinity to FcγRs was detected using Biacore T200 (or Biacore 8K). Each receptor was captured on an anti-his antibody immobilized CMS sensor chip (GE). Antibodies at different concentrations were injected over the sensor chip at a flow rate of 30 uL/min for an association phase of 60 s, followed by 60 s dissociation. The chip was then regenerated by 10 mM glycine (pH 1.5) after each binding cycle.
(§2) The sensorgrams of blank surface and buffer channel were subtracted from the test sensorgrams. The experimental data was fitted by 1:1 model using Langmiur analysis (for FcγRI) or steady state model (for other receptors). A molecular weight of 150 KDa was used to calculate the molar concentration of antibodies.
(In general: In SPR one partner is held on a chip, and binding of the other changes the refractive index at the surface.)

In another assay the target is FcγRIIIa (F176) (UniProt P08637 17-208). In words: SPR (Biacore), receptor captured on anti-his chip, antibody injected, steady state fit. As to the method:
as §1, §2

Another assay concerns the target FcγRIIIa (V176) (UniProt P08637 17-208). The description is as above. As to the method:
as §1, §2

Another assay concerns the target FcγRIIIb (UniProt O75015 17-200). Described as above. As to the method:
as §1, §2

The next assay addresses T3, FcγRIIa (H167) (UniProt P12318 36-218, limits assumed).
T3 sequence (looked up): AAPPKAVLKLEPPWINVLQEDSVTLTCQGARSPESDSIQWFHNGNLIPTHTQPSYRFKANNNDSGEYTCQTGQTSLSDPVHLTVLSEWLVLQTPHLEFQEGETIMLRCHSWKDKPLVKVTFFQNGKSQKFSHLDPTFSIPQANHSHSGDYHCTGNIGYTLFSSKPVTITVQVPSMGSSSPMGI
The assay is described as above. As to the method:
as §1, §2

The target of the next assay is T4, FcγRIIa (R167) (UniProt P12318 36-218, limits assumed).
T4 sequence (looked up): T3 sequence (looked up) with H132R
The description is as above. As to the method: as §1, §2

For another assay, the target named is T5, C1Q (UniProt P02745 23-245; P02746 28-253; P02747 29-245).
T5 construct: also called Clq
T5 sequence (P02745 23-245 limits assumed, chain 1 of 3): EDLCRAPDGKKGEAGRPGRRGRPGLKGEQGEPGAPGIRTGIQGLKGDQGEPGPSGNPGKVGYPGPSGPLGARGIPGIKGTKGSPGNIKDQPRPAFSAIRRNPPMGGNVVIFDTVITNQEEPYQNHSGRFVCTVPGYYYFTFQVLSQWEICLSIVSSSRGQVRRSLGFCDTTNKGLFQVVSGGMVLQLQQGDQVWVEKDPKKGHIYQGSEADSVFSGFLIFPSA
T5 sequence (P02746 28-253 limits assumed, chain 2 of 3): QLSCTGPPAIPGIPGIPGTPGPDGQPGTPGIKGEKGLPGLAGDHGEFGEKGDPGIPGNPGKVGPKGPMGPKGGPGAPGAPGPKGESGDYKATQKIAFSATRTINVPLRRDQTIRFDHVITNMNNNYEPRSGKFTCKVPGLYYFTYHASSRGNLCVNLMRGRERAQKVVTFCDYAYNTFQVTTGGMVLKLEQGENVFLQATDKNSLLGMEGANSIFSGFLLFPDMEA
T5 sequence (P02747 29-245 limits assumed, chain 3 of 3): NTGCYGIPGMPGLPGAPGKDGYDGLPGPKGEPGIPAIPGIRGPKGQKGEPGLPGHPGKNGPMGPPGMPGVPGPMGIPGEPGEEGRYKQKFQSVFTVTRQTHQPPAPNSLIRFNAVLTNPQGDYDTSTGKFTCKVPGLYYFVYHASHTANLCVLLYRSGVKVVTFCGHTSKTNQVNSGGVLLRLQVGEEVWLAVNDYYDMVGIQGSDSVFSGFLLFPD
Description: ELISA, antibody coated on the plate, C1q titrated (axis [C1q] nM), anti-human C1q-HRP detection. As to the method:
ELISA Plates (Nunc) were coated with antibody samples at 3 μg/mL overnight at 4° C. After blocking and washing, C1q was gradient diluted starting from 600 μg/mL and incubated at room temperature for 2 hr. The plates were then washed and subsequently incubated with sheep anti-human C1q Ab-HRP for 1 hr. After washing, TMB substrate was added and the interaction was stopped by 2 M HCl. The absorbance at 450 nm was read using a microplate reader (Molecular Device).
The binding activity of antibodies to C1Q was tested by ELISA.
For orientation: In an ELISA, binding on a coated surface is turned into a signal by an enzyme label.

Numbering of substitutions follows the chain as printed. Names and notes keep the numbering of the source. Some results are limits rather than exact numbers.

Sequence of FcγRI (P12314 16-288 limits assumed): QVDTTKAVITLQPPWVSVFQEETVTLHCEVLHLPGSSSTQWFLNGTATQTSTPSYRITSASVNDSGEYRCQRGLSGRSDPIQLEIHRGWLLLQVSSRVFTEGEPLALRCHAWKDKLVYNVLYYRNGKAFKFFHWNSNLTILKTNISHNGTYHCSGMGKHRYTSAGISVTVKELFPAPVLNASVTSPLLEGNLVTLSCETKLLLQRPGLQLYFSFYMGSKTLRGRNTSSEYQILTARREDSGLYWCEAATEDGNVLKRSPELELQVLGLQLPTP
Sequence of FcγRIIIa (V176) (P08637 17-208 F176V limits assumed): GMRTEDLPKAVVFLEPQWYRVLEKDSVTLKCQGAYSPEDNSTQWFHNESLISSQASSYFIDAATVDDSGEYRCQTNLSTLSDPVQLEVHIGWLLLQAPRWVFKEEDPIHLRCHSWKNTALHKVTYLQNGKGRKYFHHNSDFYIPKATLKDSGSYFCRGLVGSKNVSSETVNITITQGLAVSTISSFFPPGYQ
Sequence of FcγRIIIa (F176) (P08637 17-208 limits assumed): as the sequence (P08637 17-208 F176V limits assumed) above, with V160F counted along it
Sequence of FcγRIIIb (O75015 17-200 limits assumed): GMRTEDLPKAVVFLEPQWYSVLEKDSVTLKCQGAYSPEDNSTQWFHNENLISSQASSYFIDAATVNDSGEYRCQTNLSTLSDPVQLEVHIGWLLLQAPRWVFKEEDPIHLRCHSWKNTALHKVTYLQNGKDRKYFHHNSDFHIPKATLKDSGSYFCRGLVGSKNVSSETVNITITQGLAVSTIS

B1: W3438-T3U4.E17-1.uIgG4.SP (bispecific antibody)
light 1: DIVMTQSPDSLAVSLGERATINCKSSQSLLNSRTRKNYLAWYQQKPGQPPKLLIYWASTRQSGVPDRFSGSGSGTDFTLTISSLQAEDVAVYYCTQSHTLRTFGGGTKVEIKPDIQNPDPAVYQLRDSKSSDKSVCLFTDFDSQTQVSQSKDSDVYITDKCVLDMRSMDFKSNSAVAWSQKSDFACANAFQNSIIPEDTFFPSPESS
heavy 1: QVQLVQSGAEVKKPGSSVKVSCKASGFAFTDYYIHWVRQAPGQGLEWMGWISPGNVNTKYNENFKGRVTITADKSTSTAYMELSSLRSEDTAVYYCARDGYSLYYFDYWGQGTLVTVLEDLKNVFPPEVAVFEPSEAEISHTQKATLVCLATGFYPDHVELSWWVNGKEVHSGVCTDPQPLKEQPALQDSRYALSSRLRVSATFWQNPRNHFRCQVQFYGLSENDEWTQDRAKPVTQIVSAEAWGRYGPPCPPCPAPEFLGGPSVFLFPPKPKDTLMISRTPEVTCVVVDVSQEDPEVQFNWYVDGVEVHNAKTKPREEQFNSTYRVVSVLTVLHQDWLNGKEYKCKVSNKGLPSSIEKTISKAKGQPREPQVYTLPPCQEEMTKNQVSLWCLVKGFYPSDIAVEWESNGQPENNYKTTPPVLDSDGSFFLYSRLTVDKSRWQEGNVFSCSVMHEALHNHYTQKSLSLSLGK
light 2: DIQLTQSPSFLSASVGDRVTITCSASSTVNYMHWYQQKPGKAPKLLIYSTSNLASGVPSRFSGSGSGTEFTLTISSLQPEDFATYYCHQWSSYPYTFGQGTKLEIKRTVAAPSVFIFPPSDEQLKSGTASVVCLLNNFYPREAKVQWKVDNALQSGNSQESVTEQDSKDSTYSLSSTLTLSKADYEKHKVYACEVTHQGLSSPVTKSFNRGEC
heavy 2: QMQLVQSGPEVKKPGTSVKVSCKASGYAFTSYNMYWVRQARGQRLEWIGYIDPYNGDTTYNQKFKGRVTITRDMSTSTAYMELSSLRSEDTAVYYCLTTAYAMDYWGQGTLVTVSSASTKGPSVFPLAPCSRSTSESTAALGCLVKDYFPEPVTVSWNSGALTSGVHTFPAVLQSSGLYSLSSVVTVPSSSLGTKTYTCNVDHKPSNTKVDKRVESKYGPPCPPCPAPEFLGGPSVFLFPPKPKDTLMISRTPEVTCVVVDVSQEDPEVQFNWYVDGVEVHNAKTKPREEQFNSTYRVVSVLTVLHQDWLNGKEYKCKVSNKGLPSSIEKTISKAKGQPREPQVCTLPPSQEEMTKNQVSLSCAVKGFYPSDIAVEWESNGQPENNYKTTPPVLDSDGSFFLVSRLTVDKSRWQEGNVFSCSVMHEALHNHYTQKSLSLSLGK
notes: Bispecific, bivalent: one anti-CD3 arm with TCR constant domains and one native anti-CD19 Fab arm, IgG4 S228P Fc with knobs-into-holes; also called WBP3438; CD3×CD19 bispecific antibody; copies: 1 + 1 + 1 + 1
As for B1, the EC50 in the assay with human CD3 was 0.047 µM; with cynomolgus CD19, 0.026 µM. In addition, the Kd in the assay with FcγRI is 0.00979 µM; with FcγRIIIa (F176), 29.3 µM; with FcγRIIIa (V176) it was 14 µM; with FcγRIIIb, greater than 41 µM; with FcγRIIa (H167), 20.5 µM; in the assay with FcγRIIa (R167) it was 15.8 µM. For the same molecule, the binding result in the assay with C1Q was “no binding (tested: about 1500 nM C1q)”.
